Data from patent publication US20240317847A1 (Bayer, published 2024).
One block for each binder: values may come before it.

Tests used:
human IL-11 [1] = target: T1, human IL-11 (human, UniProt P20809 22-199); test: Di-complex ELISA, canine IL11RA-hFc binding to immobilized hIL-11, competition
T1 construct: Invigate recombinant protein; biotinylated when immobilized in the Di-complex ELISA; also called hIL11; hIL-11
T1 sequence: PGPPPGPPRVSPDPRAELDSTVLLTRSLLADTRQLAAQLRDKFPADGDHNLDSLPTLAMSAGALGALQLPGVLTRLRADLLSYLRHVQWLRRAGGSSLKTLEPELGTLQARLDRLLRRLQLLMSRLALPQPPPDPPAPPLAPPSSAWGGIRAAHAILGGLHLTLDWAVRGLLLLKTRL
Procedure: (§1) In the Di-complex ELISA format anti IL-11 antibodies are tested for the ability to interfere with the formation of complexes consisting of immobilized murine IL-11 (Invigate, e.g., lot #C210819-09) or human IL-11 (Invigate, e.g., lot #C121021-19), and murine IL11RA-Fc fusion proteins or canine IL11RA-human-Fc fusion protein (FIG. 17a, b).
(§2) Bispecific antibodies were subjected to the experimental assay procedure described in Example 18 and IC50 [M], respectively efficacy (%) were calculated accordingly.

murine IL-11 [2] = target: T2, murine IL-11 (mouse, UniProt P47873 22-199); test: Di-complex ELISA, canine IL11RA-hFc binding to immobilized mIL-11, competition
T2 construct: Invigate recombinant protein; biotinylated when immobilized in the Di-complex ELISA; also called mIL11; mIL-11
T2 sequence: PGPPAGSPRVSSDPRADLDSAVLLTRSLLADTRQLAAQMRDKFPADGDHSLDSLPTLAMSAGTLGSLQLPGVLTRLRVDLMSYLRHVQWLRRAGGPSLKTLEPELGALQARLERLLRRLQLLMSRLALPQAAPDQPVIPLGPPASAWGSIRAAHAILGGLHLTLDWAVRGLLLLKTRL
Procedure: as §1, §2

murine IL-11 [3] = target: T2, murine IL-11; test: cell-based or functional assay
human IL-11 [4] = target: T1, human IL-11; test: cell-based or functional assay
cynomolgus IL-11 = target: T3, cynomolgus IL-11 (cynomolgus, UniProt P20808 22-199); test: SPR (Biacore), 25 C, antibody captured via anti-Fc, IL-11 as analyte
T3 construct: Invigate recombinant protein; also called cIL11; Macaca IL-11
T3 sequence: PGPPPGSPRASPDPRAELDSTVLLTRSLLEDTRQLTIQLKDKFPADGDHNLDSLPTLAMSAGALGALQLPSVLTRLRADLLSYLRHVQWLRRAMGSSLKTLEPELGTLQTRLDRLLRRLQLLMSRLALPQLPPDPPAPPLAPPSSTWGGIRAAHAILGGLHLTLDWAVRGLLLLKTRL
Procedure: (§3) To assess the binding kinetics and affinity of anti-IL-11 bispecific antibodies as well as their species cross-reactivity profile, binding assays were conducted using surface plasmon resonance (SPR). […] Antibodies were captured either via anti-human Fc IgGs (“Human antibody capture kit”, Order No. BR100839, Cytiva) or via anti-mouse Fc IgGs (“Mouse antibody capture kit, Order No. BR100383, Cytiva) covalently amine coupled to a Series S CM5 sensor chip (Cytiva) depending on the isotype. The amine coupling was carried out according to the manufacturer's instructions using 1-ethyl-3-(3-dimethylaminopropyl) carbodiimide hydrochloride (EDC), N-hydroxysuccinimide (NHS) and ethanolamine HCl, pH 8.5 (“Amine Coupling Kit” BR-1000-50, Cytiva.). Human, mouse, cynomolgus or rat IL-11 was used as analyte at several dilutions within the concentration range from 0.05-200 nM. For binding assays with only one concentration 200 nM IL-11 was used. The sensor surface was regenerated with glycine pH 1.7 after each antigen injection. Obtained sensorgrams were double referenced (subtraction of reference flow cell signal and buffer injection) and were fitted to a 1:1 Langmuir binding model to derive kinetic data using the Biacore T200 Evaluation software or the Biacore Insight software.
(§4) If no value is reported, there was either no binding or very low binding and multiphasic binding behavior.

murine IL-11 [5] = target: T2, murine IL-11; test: as above
Procedure: as §3, §4

human IL-11 [6] = target: T1, human IL-11; test: as above
Procedure: as §3, §4

rat IL-11 = target: T4, rat IL-11 (rat, UniProt Q99MF5 22-199); test: as above
T4 construct: Invigate recombinant protein; also called rIL11
T4 sequence: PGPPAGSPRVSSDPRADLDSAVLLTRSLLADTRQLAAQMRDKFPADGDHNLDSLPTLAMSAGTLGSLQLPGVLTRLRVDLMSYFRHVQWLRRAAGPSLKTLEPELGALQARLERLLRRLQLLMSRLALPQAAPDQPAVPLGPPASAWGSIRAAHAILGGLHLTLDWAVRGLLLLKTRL
Procedure: as §3, §4

murine IL-11 [7] = target: T2, murine IL-11; test: Tri-complex ELISA, mIL-11 + mIL-11Ra-Fc + mgp130-Fc, inhibition of complex formation
Procedure: (§5) In the Tri-complex ELISA format IL-11 antibodies are tested for their ability to inhibit the formation of a complex consisting of murine or human gp130-Fc fusion protein, with murine or human IL-11, and a murine IL11RA-Fc fusion protein. The assay format was adapted according to FIG. 18 (a, b), depending on whether murine or human IL-11 IgG antibodies were tested.
(§6) Bispecific antibodies were subjected to the experimental assay procedure described in Example 19 and IC50 [M], respectively efficacy (%) were calculated accordingly.

human IL-11 [8] = target: T1, human IL-11; test: Tri-complex ELISA, hIL-11 + mIL-11Ra-Fc + hgp130-Fc, inhibition of complex formation
Procedure: as §5, §6

human IL2Ra = target: T5, human IL2Ra (human, UniProt P01589 22-240, limits assumed); test: ELISA on coated IL2Ra, signal ratio to isotype control at 1E-07 M antibody
T5 construct: coated on the ELISA plate; also called IL-2 receptor alpha
T5 sequence (looked up): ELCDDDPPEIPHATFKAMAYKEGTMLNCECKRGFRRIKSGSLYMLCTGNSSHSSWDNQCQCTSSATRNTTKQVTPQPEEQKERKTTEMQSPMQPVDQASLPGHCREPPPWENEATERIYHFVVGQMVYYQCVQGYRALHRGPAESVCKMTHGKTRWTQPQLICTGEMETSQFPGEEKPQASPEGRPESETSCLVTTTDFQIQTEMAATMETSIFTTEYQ
Procedure: IL2RA (Peprotech, Germany, #200-02RC) was coated at 1 or 0 μg/ml (buffer only control) in 30 μl coating buffer (Candor, #113500) per well on a 384 well microtiter plate (Maxisorb, Nunc, #460518) over night at 4-8° C. After two washes with 50 μl/well washing buffer (PBS+0.05% Tween, pH 7.4), the plates were incubated for two hours at room temperature with 50 μl/well SmartBlock (Candor, #113500). After blocking, the plates were washed three times with washing buffer. Then, a dilution series of the respective antibody (1E-7 [M] down to 2E-13 [M]) in PBS+0.05% Tween, 10% SmartBlock were added in 30 μl to the microtiter plate and incubated for 90 min at room temperature. After three additional washes, 30 μl anti mouse IgG HRP-conjugated antibody (Biotechne, HAF007), diluted 1:1000 in PBS+0.05% Tween (pH 7.4), were added per well and incubated for one hour. After three additional washes, a mixture of Amplex red (Invitrogen, #12222, 10 mM stock solution in DMSO) 1:1000 diluted in PBS and H2O2 (30%, Merck, #107209)) diluted 1:10000 in PBS were added as substrate with 30 μl per well and incubated for 20 min in the dark. Relative fluorescence was measured with a microtiter plate reader at 535/590 nm.
Bispecific antibodies were subjected to the experimental assay procedure described in Example 20. Ratios of the signals generated at an antibody concentration of 1E-07 [M] by the respective bispecific antibody versus those of an isotype control antibody were calculated and are shown in Table E29. The bispecific antibodies show no binding to IL-2 Ra.

[9] = target: T6, murine IL-11 (Invigate, e.g., lot #C210819-09) (mouse, UniProt P47873 22-199); test: SPR, Biacore 8K; antibody captured on anti-human IgG Fc chip
T6 construct: Bought protein; biotinylated where captured on streptavidin plates; also called mIL-11; mIL11
T6 sequence: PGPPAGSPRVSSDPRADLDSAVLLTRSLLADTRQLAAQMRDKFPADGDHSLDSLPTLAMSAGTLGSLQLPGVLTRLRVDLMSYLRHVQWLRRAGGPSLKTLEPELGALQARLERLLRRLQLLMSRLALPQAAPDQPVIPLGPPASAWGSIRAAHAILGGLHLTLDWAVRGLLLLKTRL
Procedure: (§7) Antibody binding affinity to hIL-11 (Invigate, Germany, e.g., lot #C121021-19) and mIL-11 (Invigate, Germany, e.g., lot #C210819-09) was detected using Biacore 8K. Each antibody was captured on an anti-human IgG Fc antibody immobilized CM5 sensor chip (GE). hIL-11 and mIL-11 at different concentrations (0, 5, 15.82 and 50 nM) in 1×HBS-EP+ (pH 7.4) (GE healthcare) were injected over the sensor chip at a flow rate of 30 μL/min for an association phase of 120 s, followed by 200 s dissociation phase. The chip was then regenerated by 10 mM Glycine, pH 1.5 after each binding cycle.

[10] = target: T7, human IL-11 (Invigate, e.g., lot #C121021-19) (human, UniProt P20809 22-199); test: SPR, Biacore 8K; antibody captured on anti-human IgG Fc chip, IL-11 analyte 0-50 nM, 1:1 fit
T7 construct: Bought protein; also called hIL-11; hIL11
T7 sequence: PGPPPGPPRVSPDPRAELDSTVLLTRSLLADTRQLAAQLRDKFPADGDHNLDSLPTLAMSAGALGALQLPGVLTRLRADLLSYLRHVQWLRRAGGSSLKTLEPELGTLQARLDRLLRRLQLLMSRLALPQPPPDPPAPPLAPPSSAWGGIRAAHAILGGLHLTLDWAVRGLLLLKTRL
Procedure: as §7
The sensorgrams of blank surface and buffer channel were subtracted from the test sensorgrams. The experimental data was fitted by 1:1 model using Langmiur analysis. Molecular weight of 19.3 kDa was used to calculate the molar concentration of human and mouse IL-11.

[11] = target: T7, human IL-11 (Invigate, e.g., lot …); test: ELISA, receptor-Fc titrated on biotinylated IL-11 captured on streptavidin plate; species of IL-11 not said
[12] = target: T6, murine IL-11 (Invigate, e.g., lot …); test: as above

IC50 (human IL-11 [1]): 6.3 nM
IC50 (murine IL-11 [2]): 4.1 nM
Efficacy (%), Stat3 reporter gene assay (murine IL-11 [3]): 96.9%
IC50, Stat3 reporter gene assay (murine IL-11 [3]): 1.8 nM
Efficacy (%), Stat3 reporter gene assay (human IL-11 [4]): 88.5%
IC50, Stat3 reporter gene assay (human IL-11 [4]): 0.65 nM
Kd (cynomolgus IL-11): 0.074 nM
Kd (murine IL-11 [5]): 0.046 nM
Kd (human IL-11 [6]): 0.083 nM
Kd (rat IL-11): 0.045 nM
Efficacy (%) (murine IL-11 [7]): 98%
IC50 (murine IL-11 [7]): 0.258 nM
Efficacy (%) (human IL-11 [8]): 98%
IC50 (human IL-11 [8]): 1.28 nM
Ratio IL-2Ra Binding Signal Antibody/Isotype Control (human IL2Ra): 146 ratio
B1: TPP-26195 (bispecific antibody, IgG1)
chain 1: EVQLLESGGGLVQPGGSLRLSCAASGFTFSSYGMHWVRQAPGKGLEWVSVISYDGSYKYYADSVKGRFTISRDNSKNTLYLQMNSLRAEDTAVYYCAAGVPDYWGQGTLVTVSSGGGGSGGGGSGGGGSQSVLTQPPSASGTPGQRVTISCTGSSSNIGAGYDVHWYQQLPGTAPKLLIYSNNERPSGVPDRFSGSKSGTSASLAISGLRSEDEADYYCAAWDDSLNGPVFGGGTKLTVLGGGGSGGGGSGGGGSGVECPPCPAPPVAGPSVFIFPPKPKDVLTITLTPKVTCVVVDISKDDPEVQFSWFVDDVEVHTAQTQPREEQFNSTFRSVSELPIMHQDWLNGKEFKCRVNSAAFPAPIEKTISKTKGRPKAPQVYTIPPPKEQMAKDKVSLWCMITDFFPEDITVEWQWNGQPAENYKNTQPIMDTDGSYFVYSKLNVQKSNWEAGNTFTCSVLHEGLHNHHTEKSLSHSPGK
chain 2: EVQLLESGGGLVQPGGSLRLSCAASGFTFSHYDMNWLRQAPGKGLEWVGVISYDGSNKFYADFVKGRFTISRDNSKNTLYLQMNSLRAEDTAVYYCARTPGSHFDYWGQGTLVTVSSGGGGSGGGGSGGGGSQSVLTQPPSASGTPGQRVTISCSGSSSNIGNNAVNWYQQLPGTAPKLLIYYDDLLPSGVPDRFSGSKSGTSASLAISGLRSEDEADYYCSAWDDSLNGVVFGGGTKLTVLGGGGSGGGGSGGGGSGVECPPCPAPPVAGPSVFIFPPKPKDVLTITLTPKVTCVVVDISKDDPEVQFSWFVDDVEVHTAQTQPREEQFNSTFRSVSELPIMHQDWLNGKEFKCRVNSAAFPAPIEKTISKTKGRPKAPQVYTIPPPKEQMAKDKVSLSCAITDFFPEDITVEWQWNGQPAENYKNTQPIMDTDGSYFVVSKLNVQKSNWEAGNTFTCSVLHEGLHNHHTEKSLSHSPGK
notes: scFv-kih-mIgG1

Kd [10]: 600 nM
B2: TPP-31280 (antibody, human IgG4, V domains shown)
VH: EVQLLESGGGLVQPGGSLRLSCAASGFTFSHYDMNWLRQAPGKGLEWVGVISYDGSNKFYADFVKGRFTISRDNSKNTLYLQMNSLRAEDTAVYYCARTPGSHFDYWGQGTLVTVSS
VL: QSVLTQPPSASGTPGQRVTISCSGSSSNIGNNAVNWYQQLPGTAPKLLIYRDDLLPSGVPDRFSGSKSGTSASLAISGLRSEDEADYYCSAWDDSLNGVVFGGGTKLTVL
notes: consecutive numbering; also called VL-Y51R
binding result [9]: no binding (tested: 50 nM (highest IL-11 concentration))

EC50 [11]: ~2 nM
EC50 [12]: ~2 nM
B3: canine IL11RA-human-Fc fusion protein (Sino Biological, #70078-D02H) (Fc fusion)
chain: SPCPQAWGPPGVQYGQPGRSMTLCCPGVTAGAPVSWFRDGETRLLQGPDSGLGHELVLAQADSTDEGTYICRTLDGALGGIVTLQLGYPPARPVVSCQAADYENFSCTWSPSQVSGLPTRYLTSYRKKTVPGADGQRMSPSTGPWPCPQDPPGAARCVVHGAEFWSQYRINVTEVNPLGTSTRLLDVSLQSILRPDPPQGLRVESVPGYPRRLRASWTYPASWPRQPHFLLRFRLQYRPAQHPAWSTVEPAGLEEVITDAVAGLPHAVRVSARDFLDAGTWSAWSPEAWGTPSTGSLPKEIPAGGQPRKQLEEEPQADSPTPPRPSLLPDPRPLDQRDPLEQIAVLA
notes: Used in the Di-complex ELISA when murine IgGs were tested; also called canine IL11RA-Fc; Canine IL-11Ra fused to human Fc; not shown: human Fc (and any linker) of the bought fusion protein, Sino Biological #70078-D02H
